Measured values taken from article doi:10.1101/2021.12.21.473685 (bioRxiv, 2021).

Legend:
[1] = target: PARylated PARP2 (human, UniProt Q9UGN5-2 1-570, poly(ADP-ribose) chains added by in vitro automodification; modified residues not stated); experiment: ITC
[2] = target: ZnF(1-2-3)-BRCT PARP1 (Homo sapiens, UniProt P09874 1-494); experiment: fluorescence polarization
[3] = target: PARP1 full length (Homo sapiens, UniProt P09874 1-1014); experiment: fluorescence polarization
PARP1 full length, sequence (P09874 whole entry): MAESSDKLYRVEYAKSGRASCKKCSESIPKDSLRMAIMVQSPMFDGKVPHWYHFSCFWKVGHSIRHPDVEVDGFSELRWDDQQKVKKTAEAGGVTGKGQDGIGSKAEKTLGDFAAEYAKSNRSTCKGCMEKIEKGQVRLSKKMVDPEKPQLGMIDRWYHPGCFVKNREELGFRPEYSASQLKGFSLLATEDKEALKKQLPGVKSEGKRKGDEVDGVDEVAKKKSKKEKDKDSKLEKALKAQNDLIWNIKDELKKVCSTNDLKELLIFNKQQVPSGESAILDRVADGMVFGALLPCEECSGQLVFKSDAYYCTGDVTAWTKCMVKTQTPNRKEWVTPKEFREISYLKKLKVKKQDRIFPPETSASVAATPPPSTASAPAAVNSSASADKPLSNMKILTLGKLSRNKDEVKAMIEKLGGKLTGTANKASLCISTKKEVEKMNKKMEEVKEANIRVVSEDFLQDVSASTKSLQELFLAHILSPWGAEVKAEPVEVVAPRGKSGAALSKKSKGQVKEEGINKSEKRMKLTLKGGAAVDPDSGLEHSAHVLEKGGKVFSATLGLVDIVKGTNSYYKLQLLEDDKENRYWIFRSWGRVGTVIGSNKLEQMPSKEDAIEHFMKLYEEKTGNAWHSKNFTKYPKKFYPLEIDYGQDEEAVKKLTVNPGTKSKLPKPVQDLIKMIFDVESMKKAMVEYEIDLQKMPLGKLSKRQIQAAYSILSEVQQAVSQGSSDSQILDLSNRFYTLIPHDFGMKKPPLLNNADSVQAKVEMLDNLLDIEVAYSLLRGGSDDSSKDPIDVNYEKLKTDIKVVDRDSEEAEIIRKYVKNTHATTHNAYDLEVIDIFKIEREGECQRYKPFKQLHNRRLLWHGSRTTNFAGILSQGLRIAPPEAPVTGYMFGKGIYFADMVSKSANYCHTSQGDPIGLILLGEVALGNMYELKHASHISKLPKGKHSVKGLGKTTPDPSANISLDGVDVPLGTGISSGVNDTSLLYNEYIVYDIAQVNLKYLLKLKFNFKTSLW

ZnF(1-2-3)-BRCT PARP1, sequence (P09874 1-494): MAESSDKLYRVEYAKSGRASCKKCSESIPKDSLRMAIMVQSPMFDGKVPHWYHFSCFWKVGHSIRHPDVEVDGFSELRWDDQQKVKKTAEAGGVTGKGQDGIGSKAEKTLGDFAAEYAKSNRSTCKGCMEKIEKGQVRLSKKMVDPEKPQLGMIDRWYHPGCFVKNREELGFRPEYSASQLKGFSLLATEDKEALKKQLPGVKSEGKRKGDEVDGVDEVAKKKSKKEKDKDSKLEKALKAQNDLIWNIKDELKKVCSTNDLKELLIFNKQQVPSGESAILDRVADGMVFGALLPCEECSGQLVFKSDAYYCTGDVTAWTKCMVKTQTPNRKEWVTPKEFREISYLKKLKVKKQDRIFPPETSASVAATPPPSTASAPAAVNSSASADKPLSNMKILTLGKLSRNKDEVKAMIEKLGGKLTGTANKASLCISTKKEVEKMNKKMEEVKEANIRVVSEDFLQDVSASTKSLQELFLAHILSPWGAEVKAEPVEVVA

Molecule	Kd [1] [µM]	Kd [2] [µM]	Kd [3] [µM]
DSB DNA (5-FAM labelled) (dsDNA) DNA 1: GCCTACCGGTTCGAATGGCAGC DNA 2: GCTGCCATTCGAACCGGTAGGC		~0.088	~0.015
GCTGGCTTCGTAAGAAGCCAGCTCGCGGTCAGCTTGCTGACCGCG (structured_DNA, 5'-phosphate (printed for unlabelled oligo)) [SSB DNA dumbbell 45-mer (5-FAM labelled)]		~0.07	~0.064
ZnF3-BRCT-WGR of PARP1 (domain or fragment) VDEVAKKKSKKEKDKDSKLEKALKAQNDLIWNIKDELKKVCSTNDLKELLIFNKQQVPSGESAILDRVADGMVFGALLPCEECSGQLVFKSDAYYCTGDVTAWTKCMVKTQTPNRKEWVTPKEFREISYLKKLKVKKQDRIFPPETSASVAATPPPSTASAPAAVNSSASADKPLSNMKILTLGKLSRNKDEVKAMIEKLGGKLTGTANKASLCISTKKEVEKMNKKMEEVKEANIRVVSEDFLQDVSASTKSLQELFLAHILSPWGAEVKAEPVEVVAPRGKSGAALSKKSKGQVKEEGINKSEKRMKLTLKGGAAVDPDSGLEHSAHVLEKGGKVFSATLGLVDIVKGTNSYYKLQLLEDDKENRYWIFRSWGRVGTVIGSNKLEQMPSKEDAIEHFMKLYEEKTGNAWHSKNFTKYPKKFYPLEIDYGQDEEAVKKLTVNPGT	0.04		

The next lines start with results.

Kd [1] [µM]	Molecule	Kd [2] [µM]	Kd [3] [µM]
2	ZnF3 domain of PARP1 (domain or fragment)		
3	WGR domain of PARP1 (domain or fragment)		
2	BRCT domain of PARP1 (from UniProt P09874 385-476) (domain or fragment)		
